± gives the standard error. Fewer inactive variants are shown than the library holds.
B1: glmS ribozyme (parent)
chain: AUAAAAGCGCCAGAACUACAGAAAUGUAGUUGACGAGGAGGAGGUUUAUCGAAUUUUCGGCGGAUGCCUCCAAA

How the values were obtained:
Conditions in all cases: with glucosamine-6-phosphate
glucosamine-6-phosphate [1] = variants of: B1; assay: self-cleavage kobs at 160 uM GlcN6P; higher = faster cleavage; RNA array
How it was run: (§1)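 Sequenced MiSeq chips were the platform: E. coli RNA polymerase transcribed barcoded ribozyme variants on them in situ, and a hybridised Cy3 probe tracked these at 37 °C. After glucosamine-6-phosphate (40 μM to 10 mM) in HEPES/KCl/Mg(OAc)2 buffer was flowed in, tiles were imaged over ~14 h. Signals normalised to baseline and to non-cleaving reference variants were reduced to per-tile medians and fit to one- or two-exponential decays to obtain kobs. kcat and KM were derived through weighted Michaelis–Menten fits across concentrations.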

glucosamine-6-phosphate [2] = variants of: B1; assay: self-cleavage kobs at 640 uM GlcN6P; higher = faster cleavage; RNA array
How it was run: as §1

glucosamine-6-phosphate [3] = variants of: B1; assay: self-cleavage kobs at 2500 uM GlcN6P; higher = faster cleavage; RNA array
How it was run: as §1

glucosamine-6-phosphate [4] = variants of: B1; assay: self-cleavage kobs at 10000 uM GlcN6P; higher = faster cleavage; RNA array
How it was run: as §1

| Variant | self-cleavage kobs at 160 uM GlcN6P (glucosamine-6-phosphate [1]) [s⁻¹] | self-cleavage kobs at 640 uM GlcN6P (glucosamine-6-phosphate [2]) [s⁻¹] | self-cleavage kobs at 2500 uM GlcN6P (glucosamine-6-phosphate [3]) [s⁻¹] | self-cleavage kobs at 10000 uM GlcN6P (glucosamine-6-phosphate [4]) [s⁻¹] |
| --- | --- | --- | --- | --- |
| AUAAAAGCGCCAGAACUACAGAAAUGUAGCUGACGAGGAGCAGGUUUAGCUAAUUUUAGGCGGAUGCCUCCAAA [U30C G41C U49G G51U C58A] | < 1e-05 |  |  |  |
| AUAAAAGCGCCAGAACUACAGAAAUGUAGGUGUCGAGGAGGAGGUUUAUCGAAUUUUCGGCGGAUGCCUCCAAA [U30G A33U] | < 1e-05 |  |  |  |
| AUAAAAGCGCCAGAACUACAGAAAUGUAGGUGACGAGGAGGAAGUUGAUCGAAUUUUCGGCGGAUGCCUCCAAA [U30G G43A U47G] | < 1e-05 | < 1e-05 | < 1e-05 |  |
| AUAAAAGCGCCAGAACUACAGAAAUGUAGGUGACCCGGAGGAGGUUUAUCGUAUUUUCGGCGGAUGCCUCCAAA [U30G G35C A36C A52U] | < 1e-05 |  | < 1e-05 |  |
| AUAAAAGCGCCAGAACUACAGAAAUGUAGUGGACAAGGAGGAGGUUUAUCGAAUUUUCGGCGGAUGCCUCCAAA [U31G G35A] | < 1e-05 | < 1e-05 |  | < 1e-05 |
| AUAAAAGCGCCAGAACUACAGAAAUGUAGAUGACGAGGAGGAGGUUUAUCGAAUUUUCGGCGAAUGCCUCCAAA [U30A G63A] | < 1e-05 | < 1e-05 | < 1e-05 | < 1e-05 |
| AUAAAAGCGCCAGAACUACAGAAAUGUAGUAGACGAGGAGGUGGAUUAUCGAAUUUUCGGCUGAUGCCUCCAAA [U31A A42U U45A G62U] | < 1e-05 |  | < 1e-05 |  |
| AUAAAAGCGCCAGAACUACAGAAAUGUAGCUGACGAGGAGGAGGUUUAUCGAAUAUUCGGCGGAUGCCUCCAAA [U30C U55A] | 3.75e-05 ± 1.3e-05 | 9.3e-05 ± 1.6e-05 |  |  |
| AUAAAAGCGCCAGAACUACAGAAAUGUAGUAGACGAGGAGGCGGUUUAUCGAAUUUUCGGCGGAUGCCUGCAAA [U31A A42C C70G] | < 1e-05 | < 1e-05 |  |  |
| AUAAAAGCGCCAGAACUACAGAAAUGUAGUAGACGAGGAGGAGGUUUAUCGAAUUUUCGGCGCAUGCGUCCAAA [U31A G63C C68G] | < 1e-05 |  |  |  |
| AUAAAAGCGCCAGAACUACAGAAAUGUAGGUUACGUGGAGGAGGUUUAUCGAAUUUUCGACGGAUGCCCCAAAA [U30G G32U A36U G60A U69C C71A] | < 1e-05 |  |  |  |
| AUAAAAGCGCCAGAACUACAGAAAUGUAGUGGACGAGGAGGAGGUUUAUCGCAUUUUCGGCGGAUGCCUCCAAA [U31G A52C] | < 1e-05 | < 1e-05 |  |  |
| AUAAAAGCGCCAGAACUACAGAAAUGUAGCUGACGAGGAGGAGGUUUAUUGAAUUUUCGGCGGAUGCCUGCAAA [U30C C50U C70G] | 5.6e-05 ± 1.7e-05 | 0.000134 ± 3.3e-05 | 0.000173 ± 3.3e-05 |  |
| AUAAAAGCGCCAGAACUACAGAAAUGUAGCUGACGAGGAGGAGGUUUAUCGAAAUUUCGGCGGAUGCAUCCAAA [U30C U54A C68A] | 7.12e-05 ± 2.1e-05 |  | 5.33e-05 ± 2.5e-05 |  |
| AUAAAAGCGCCAGAACUACAGAAAUGUAGGCGUCGAGGAGGAGGAUUAUCGAAUAUUCGGCGGAUGCCUCCAAA [U30G U31C A33U U45A U55A] | < 1e-05 |  |  |  |
| AUAAAAGCGCCAGAACUACAGAAAUGUAGUGGCCGAGGAGGAGGUGUAUCGAGUUUUCAGCGAAUGCCUCCAAA [U31G A33C U46G A53G G59A G63A] | < 1e-05 |  | < 1e-05 |  |
| AUAAAAGCGCCAGAACUACAGAAAUGUAGCUGACUAGGCGGAGGUUUAUCGAAUUUUCGGCGGAUGCCUCCAAA [U30C G35U A39C] | < 1e-05 |  | < 1e-05 |  |
| AUAAAAGCGCCAGAACUACAGAAAUGUAGGUGACGUGGAGGAGGUUUAUCGAAUUUUCGGCGGAUGCCUCCAAA [U30G A36U] | < 1e-05 | < 1e-05 |  |  |

Source: the supplement of paper PMC7125110
